Source: the supplement of paper PMC9732359
± gives the uncertainty stated by the source.

Assay: protein stability index of a GFP-peptide fusion (yeast GPS) (PSI 1-4); higher = more stable; sorted into four equal gates, so the index is relative within each strain
How it was run: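 Mid-log yeast cultures in leucine-free medium, carrying a pooled plasmid library, were sorted into four equal gates by their GFP/Cherry fluorescence ratio. Each plasmid expressed Cherry along with GFP fused upstream of a tiled 17-residue yeast protein peptide. Plasmids recovered from each gate were PCR-amplified and Illumina-sequenced, with reads assigned to strains by barcodes. The protein stability index was obtained by summing each gate's read frequency weighted by its gate number.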

| Sequence | protein stability index (doa10∆) | protein stability index (pdr5∆) | protein stability index (san1∆) | protein stability index (ubr1∆) |
| --- | --- | --- | --- | --- |
| NQILQTEIENYLLENNQ [YDL116W/NUP84] | 1.88 ± 0.052 | 2.24 ± 0.038 | 2.19 ± 0.066 | 2.13 ± 0.043 |
| NQNFSLTFQPQQQTNAL [GRR1] | 2.95 ± 0.065 | 3.2 ± 0.061 | 3.02 ± 0.067 | 2.94 ± 0.057 |
| NQQAQARQQVAQQLRNQ [GAL11] | 2.49 ± 0.065 | 2.94 ± 0.13 | 2.45 ± 0.14 | 2.34 ± 0.1 |
| NQSTIYEDEELSRAEYD [LIN1] | 3.12 ± 0.086 | 3.2 ± 0.087 | 3.15 ± 0.058 | 3.27 ± 0.058 |
| NRAARDRRAQRVAEKRD [RPL19A] | 2.94 ± 0.12 | 2.69 ± 0.082 | 2.85 ± 0.089 | 3.19 ± 0.06 |
| NRIIKADDHASVQINVA [RPS21A] | 2.89 ± 0.055 | 3.05 ± 0.052 | 2.99 ± 0.052 | 3.11 ± 0.039 |
| NRKIYQFTLYDRELNEV [SMC3] | – | 2.62 ± 0.11 | 2.76 ± 0.13 | 2.98 ± 0.095 |
| NRKRIVTLRKSLYTNTS [RPL3] | 2.66 ± 0.069 | 2.27 ± 0.065 | 1.66 ± 0.087 | 1.73 ± 0.076 |
| NRLEIKYHNDLIEKEIQ [SMC1] | 2.35 ± 0.18 | 2.51 ± 0.083 | – | 2.42 ± 0.13 |
| NRLEKEQSVKTQNSRHY [LIN1] | 2.44 ± 0.13 | 2.85 ± 0.12 | 2.52 ± 0.13 | 2.49 ± 0.096 |
| NRLSNPQKNLLLKGPAS [YOR098C/NUP1] | 2.96 ± 0.049 | 3.05 ± 0.038 | 2.68 ± 0.054 | 2.94 ± 0.056 |
| NRPDNKNAQYHLLVKQG [RPN7] | 2.86 ± 0.056 | 2.58 ± 0.053 | 2.79 ± 0.05 | 2.78 ± 0.036 |
| NRQICLVQKTVQESGNI [GRR1] | 3.44 ± 0.16 | 3.21 ± 0.077 | 2.81 ± 0.064 | 2.69 ± 0.1 |
| NRSAKNSKNDSANVELF [YCS4] | 3.09 ± 0.093 | 3.29 ± 0.11 | 2.94 ± 0.12 | 3.39 ± 0.072 |
| NRVPDGFQDRSLPHFPK [RPO31] | 3.29 ± 0.16 | 2.86 ± 0.15 | 3.02 ± 0.11 | 3.6 ± 0.2 |
| NRYAFSQPTNSTTTSLH [SMC4] | 2.44 ± 0.079 | 2.33 ± 0.052 | 2.14 ± 0.11 | 2.26 ± 0.044 |
| NSGNSNSNSNQQSTDAD [RPT1] | 2.59 ± 0.081 | 2.48 ± 0.081 | 2.48 ± 0.09 | 2.64 ± 0.052 |
| NSINKTTVPFKESDDPS [POP1] | 2.5 ± 0.067 | 2.93 ± 0.06 | 2.71 ± 0.072 | 2.36 ± 0.065 |
| NSIRAREVENSVSLLNS [SMC1] | 2.55 ± 0.064 | 2.78 ± 0.06 | 3.09 ± 0.071 | 3.08 ± 0.069 |
| NSMEYTGKITKMFQDIR [CDC53] | 3.06 ± 0.27 | 3.41 ± 0.14 | 2.96 ± 0.085 | 3.28 ± 0.078 |
| NSNQQQNPKLFQTIFSK [SIN4] | 1.98 ± 0.093 | 2.19 ± 0.069 | 3.11 ± 0.1 | 2.42 ± 0.082 |
| NSNTNLNSLSPQAILAK [SWI1] | 2.28 ± 0.046 | 1.93 ± 0.033 | 1.92 ± 0.054 | 2.02 ± 0.03 |
| NSQVFGVARIYASFNDT [RPS14B] | 2.54 ± 0.08 | 2.45 ± 0.065 | 2.5 ± 0.048 | 2.67 ± 0.079 |
| NSSESDEEESNDEKQKA [RPN13] | 3.32 ± 0.17 | 2.43 ± 0.21 | – | 3.41 ± 0.088 |
| NSTHLLPLQPIEIDYTV [SNF12] | 2.34 ± 0.044 | 2.27 ± 0.044 | 2.27 ± 0.051 | 2.21 ± 0.036 |

| Sequence | protein stability index (doa10∆) | protein stability index (pdr5∆) | protein stability index (san1∆) | protein stability index (ubr1∆) |
| --- | --- | --- | --- | --- |
| NSVRNSLLLAHFFSKSC [NUT1] | 1.74 ± 0.05 | 1.28 ± 0.041 | 1.19 ± 0.078 | 1.18 ± 0.035 |
| NTEEKAELQSNLQVELL [YGL100W/SEH1] | 3.06 ± 0.064 | 3.02 ± 0.087 | 1.96 ± 0.13 | 2.74 ± 0.083 |
| NTFGSSSLFNNSTNSNT [YJL041W/NSP1] | 2.42 ± 0.06 | 2.44 ± 0.053 | 3.12 ± 0.041 | 2.5 ± 0.05 |
| NTFNYDVKISNDFFDNG [RPN4] | 1.94 ± 0.08 | 2.3 ± 0.07 | 2.52 ± 0.091 | 2.48 ± 0.072 |
| NTGDGSISTYKDILNLA [ECM29] | 3.03 ± 0.083 | 2.97 ± 0.11 | 3.04 ± 0.081 | 3.09 ± 0.079 |
| NTGLLNKANIQALIHGL [RPN11] | 3.02 ± 0.14 | 2.88 ± 0.15 | 2.09 ± 0.28 | 2.67 ± 0.16 |
| NTHLGARNVQVHQEPYV [RPS0A] | 2.06 ± 0.087 | 2.25 ± 0.053 | 2.59 ± 0.09 | 2.11 ± 0.058 |
| NTIIRDGSKMLKRADYT [RPN14] | 2.87 ± 0.096 | 2.36 ± 0.093 | 3.65 ± 0.039 | 2.2 ± 0.055 |
| NTLGKGQNCLDIDGIMD [SNU114] | 3.3 ± 0.23 | 3.15 ± 0.1 | 3.02 ± 0.12 | 3.2 ± 0.11 |
| NTLRKCYPQFAERDSQG [UBP6] | 2.92 ± 0.17 | 2.65 ± 0.15 | 2.79 ± 0.15 | 2.78 ± 0.12 |
| NTNLMNGVNVQIDQLNR [GRR1] | 2.85 ± 0.052 | 3.06 ± 0.061 | 2.88 ± 0.049 | 2.99 ± 0.05 |
| NTPLVGAAFKVISNLVP [YJL039C/NUP192] | 1.96 ± 0.081 | 2.08 ± 0.095 | 2.73 ± 0.16 | 2.47 ± 0.1 |
| NTSAATVHTATSSSIIL [SSN2] | 2.41 ± 0.053 | 2.761 ± 0.026 | 2.61 ± 0.045 | 2.65 ± 0.038 |
| NTTDPLGHTKAALGEVA [SIR2] | 2.51 ± 0.065 | 2.69 ± 0.078 | 2.67 ± 0.088 | 3.08 ± 0.069 |
| NTTKPAFGGLNFGGGNN [YJL041W/NSP1] | 2.71 ± 0.054 | 3.2 ± 0.061 | 3.01 ± 0.045 | 3.13 ± 0.068 |
| NTVVGISGDISDMQHIE [PRE4] | 2.94 ± 0.12 | 3.29 ± 0.12 | 3.15 ± 0.17 | 2.82 ± 0.12 |
| NVDQTKTQCPNYDTCGG [RPC11] | 3.48 ± 0.13 | 3.15 ± 0.18 | 3.06 ± 0.08 | 3.21 ± 0.093 |
| NVEKPSSKPAFNLISNA [YLR335W/NUP2] | 3.1 ± 0.056 | 3.15 ± 0.066 | 3.14 ± 0.048 | 3.16 ± 0.044 |
| NVLLLDSNGDFNEDQLF [RRP46] | 3.17 ± 0.064 | 3.04 ± 0.054 | 3.32 ± 0.055 | 3.17 ± 0.044 |
| NVMLEKIKDNKEKIKNN [RPT5] | 2.78 ± 0.12 | 2.94 ± 0.087 | 2.55 ± 0.099 | 2.72 ± 0.094 |
| NVNSRNQLVEPNRIKLS [SRB5] | 2.29 ± 0.061 | 2.43 ± 0.052 | 2.48 ± 0.059 | 2.19 ± 0.036 |
| NVPWPQNSYADKVTSQA [RPP1] | 2.04 ± 0.094 | 2.19 ± 0.15 | 1.83 ± 0.1 | 2.25 ± 0.096 |
| NVSNTFNKTTNIDINNE [YJL041W/NSP1] | 3.1 ± 0.068 | 3.28 ± 0.065 | 2.68 ± 0.073 | 3.08 ± 0.051 |
| NVTSFMPFWKFFMKNFP [SRB8] | 1.47 ± 0.053 | 1.63 ± 0.046 | 1.43 ± 0.068 | 1.35 ± 0.041 |
| NVVEVMDMNEIEDKENS [RPT5] | 3.02 ± 0.087 | 2.58 ± 0.066 | 2.26 ± 0.067 | 2.71 ± 0.059 |
